Experimental data from patent publication US5847076A, “Regulators of the proteasome” (Board of Regents, The University of Texas System, priority 1993, dated 1998).
Ends that are not written are not given here.

Assays:
proteasome = target: T1, proteasome; test: Binding of PA28 carboxy-terminal peptides to the proteasome
T1 construct: from tissue
Description: (§1) Therefore, this peptide or a compound with similar properties may be used to block the action of the proteasome in intact cells. Such a compound or analogs having similar binding activity may be used to control accelerated rates of intracellular protein degradation. The peptide has the sequence: Acetyl-KNFEKLKKPRGETKGMIY (SEQ ID NO. 3). The N-terminal lysine may be acetylated if needed for stability. […] Therefore, the C-terminal Ile-Tyr amino acids or their functional equivalents appear to be important for binding of the 18-mer to the proteasome and for inhibition of the activation of the proteasome by activating factors PA28 and PA700. An equivalent of the 18-mer may comprise less than 18 amino acids or may comprise functionally equivalent amino acid replacements which allow similar binding activity.

[1] = target: T2, proteasome activation by PA700; test: Inhibition of proteasome activation by PA700 by C18 peptide; type: biochemical; details: for inhibition of proteasome activation by PA700: FIG. 27; for effect of peptide alone on proteasome activity: no activator
T2 construct: from tissue
Procedure: Activation of the proteasome by PA700 was performed in the presence of the indicated concentrations of purified C18 peptide.
as §1

[2] = target: T3, proteasome activation by PA28; test: Inhibition of PA28-activated proteasome by carboxy-terminal peptide; type: biochemical; details: 0.5 μg proteasome, 1 μg PA28 (FIG. 26)
T3 construct: from tissue
Procedure: Proteasome activity in the absence of PA28 was 1.2 units/assays. Assays contained 0.5 μg of proteasome and 1 μg of PA28.
as §1

[3] = tested on: proteasome (latent and active forms); details: cited from earlier work
[4] = listed as 18 amino acid peptide

Molecule: Acetyl-KNFEKLKKPRGETKGMIY (Ac-KNFEKLKKPRGETKGMIY) [C18, 18 amino acid peptide corresponding to the carboxyterminal 18 amino acids of PA28]
- binding to the proteasome (proteasome): does bind to it
- inhibition of proteasome activation by PA700 [1]: competitively inhibits proteasome activation by PA700
- inhibition of proteasome activation by PA700 [1, 4]: competitively inhibits the binding and activation of proteasome activator, PA700
- effect of peptide alone on proteasome activity [1]: had no effect on baseline proteasome activity
- effect of peptide alone on proteasome activity [1, 4]: does not activate the proteasome
- inhibition of proteasome activation by PA28 [2]: inhibition of PA28-activated proteasome
- inhibition of proteasome activation by PA28 [2, 4]: competitively inhibits binding and activation of PA28

B1: PI31: inhibitor protein of the proteasome purified from bovine red blood cells, Mr=31,000 subunit (protein, UniProt Q3SX30 2-270, looked up)
Proteasome inhibitor PI31 …: AGLEVLFASAAPAITCAQDALVCFLHWEVVTHGYYGLGAGDQPGPNDKKSELLPVEWNSNKDLYVLRYESKDGSRKLLVKAVTVENSMIINVLEHGSQQVSDLTLNLNDYIDSEHLVDFHRVYKNSEELRSRIVSGIITPIHEQWEKANLSPHREFPPATAREVDPLRIHPQHPHTSRQPTWCDPLGPFAVGGEDLDPFGCRRGGMIVDPLRSGFPRALIDPSSGLPNRLPPGAVPPGARFDPFGPIGTSPSGPNPDHLPPPGYDDMYL
- inhibition of peptidase and protease activities of the proteasome [3]: inhibited all of the peptidase and protease activities of both the latent and active forms of the proteasome by a non-competitive mechanism
